Data: the DeepSol protein solubility set

Test: soluble on expression in E. coli; label from the status in PepcDB or PDB records

Row | Sequence | soluble on expression in E. coli
1 | SLNRLFKRYSQQVQLILEATRAIGDGNLKERIDTNQVQEELNDIASAINFMVDSLDQYIHDIYTLEIKQRDAHMRALQSQINPHFLYNTLEYIRMYALSRQQEELADVVYAFSTLLRNNINQEKTTTLAEEISFCEKYVYLYQMRYPDQFAYKFEIEETIADVEIPKFIIQPLVENYFVHGIDYQRQDNAIKVHAYREGEKIIVAVVDNGKGITANRLEEIRERLNQTEIDTEQSIGLRNVHERLQRFFGESYGLTIEGKEGEGTTIRLSFVA | soluble
2 | MSLTQMNYAKEGIFTKEMQIVAQKENLSKDFLLENIACGKIIIPANINHKSLDPNGIGFGLRTKVNVNLGVSNDCVDYSEEMKKVELAHKFGIEAIMDLSNYGKTSRFRDELVNVSKAMIGTVPVYDAVGFLEKDLKQINAKDFLDVVYHHAKSGVDFMTIHAGINSRAAHIFKQSKRLTNIVSRGGSVLYAWMMMKDAENPFFEYYDDLLDICLKYDVTLSLGDALRPGSTHDASDGAQISELIELSLLTQRAWDVGIQVMIEGPGHMAINEIEANMQLEKRLCKGAPFYVLGPLVTDIGAGYDHISGAIGGAVAAASGADMLCYVTPAEHLRLPNLEDVREGIVATKIAAHAGDIAKLPKERARDDEMSKARQEIDWEKMFKLAIDGEKAKKMFNERRPDDLNSCSMCGKMCAMNTMNQILKGEDVSLAEGHHHHHH | soluble
3 | MSATTTLKEQVLTTLKREQANAVVMYLNYKKYHWLTYGPLFRDLHLLFEEQGSEVFAMIDELAERSLMLDGQPVADPADYLKVATVTPSSGQLTVKQMIEEAIANHELIITEMHQDAEIATEAGDIGTADLYTRLVQTHQKHRWFLKEFLAKGDGLVS | soluble
4 | LPEIPIAAPDLLGHGRSPWAAPWTIDANVSALAALLDNQGDGPVVVVGHSFGGAVAMHLAAARPDQVAALVLLDPAVALDGSRVREVVDAMLASPDYLDPAEARAEKATGAWADVDPPVLDAELDEHLVALPNGRYGWRISLPAMVCYWSELARDIVLPPVGTATTLVRAVRASPAYVSDQLLAALDKRLGADFELLDFDCGHMVPQAKPTEVAAVIRSRLGPR | soluble
5 | YLSKYRNETGRSPSFLVNIDSSLKSLAHVDVIYPVGDPIFIHIYERGKERRYKPIEPLLKDDEFEFMDAILDIIMSRASDYPPAENEEEQEKNIEDVYKKTVS | soluble
6 | MSFQEIPIIDLQEAFDPATRSKFLEEVRDAIINVGFLLLKNYESLGPTEEDLQSIKQQAIEFFALPAKEKLQCEMLNSPHFLGYTRLANEITASHTDWREQIDLATELPAPKEGEPLYKNIEGPNLWPNPEVIPKFRPTIERFIEKMTALSNVFKDLVAESIGVDPKALNRYFKENQQCKMKLIAYPDVSELDGTKSAALDDTPETNQGVEPHRDSDLITYIYQATEHQNSLQVQNFQGHWITVPNIPGHLVVNNGQTLQAITGGVAKATIHRVLVPEKGTGTRISIPFFQTIDLDSSKGVVDNLPQEVIDLKNERDKKIKDWGVDTGFQFEPDVSKEPIGHAVFRNRIKSHQDVAKKWYPDVLKSVLQEYTH | soluble
7 | MRRLAWLLPLLLLAGAVGALRYQWLDLPARWNPWLPLDVREPPNLLTRYKLWRLADDRSLCDAALATSQLRYQRVADDPPSATCPLSNSLRVRGAALELSSSFLASCPLAVSYALFERHVLQPAALDIYGQPLARVEHVGSFACRNVYNREDGRRSQHASANALDISGFRLADGRRIRLATDWAGESADGRFLRRVRDGACASFNAVLGPDYNAAHRDHFHLDMGLWKVCRLEHHHHHH | not soluble
8 | MGSDKIHHHHHHMLFLKELESNLTVSKLMELCFEHPSYKDYCSVISTKKGEVLESLSPAGTKVYFVLSGIYGMIVEEDAEMEEESYKESIVRFLQKGDSFGLYHLFYDEWSPHVSMQSLGHGEVMEVDSNFLFSIFDKKDENNFFMIKVMAEELREAHTFAKLSFLKKEERIRKAILKCAQTLGTFSDNGILLPREITQEVLARYTNTSREYVAHTVMHLIKEDIIRNRPKPLLVMDKTRL | not soluble
9 | MGSDKIHHHHHHMKKVAIVQSNYIPWKGYFDMIAAVDEFILYDDMQYTRRDWRNRNQIKTPQGVQWLTVPVLVKGKYHQKIRETEIDGTDWAAAHWKALVQNYRRSPHFTEIAAWLEPLYLAETFTHISQLNRRFIEAICNYLGIKTVIKNSWDYTLLDGKTERLADLCVQAGGTEYISGPAAKDYVDEQVFKENGIKLTWFDYIGYPEYQQLWGEFTHGVTILDLLLNCGKNAKRYMKYVE | not soluble
10 | MKPATLTAELDVRSGGRYRISFVSDDGEYFEAGGTYREVVPNELLVFTWAWHSTPERESLVTISFKPDSAGTLMIFHHAQFFDEAARDNHRRGWSSFLDKLDAFVALEHHHHHH | not soluble
11 | MGISPDAASKLYTVKFQPDPIDKKGWSVIDFNNCCTQDGGWYLNMGWGVESLIDNNPGTQWLCRWDVKEPLPYYFVFDMGKEYTLFRFGFANPVAPAAHVWAGTSKAGYVEASIDNENWVKLKDWTSPKIGEPNVNMDVPATQARYIRFVITDTYPTYDGLRVSLGEVYAWGLEHHHHHH | soluble
12 | SSRGSGILPDEFMFAEFKRQCLSTENWVNKYDKNDMEVWVEQAPLSASINNKGNYSKVHKIRCQINIKDVSAATMYDVLHDGQYRKTWDPTMLESFDIARLAHNADVGYYSWICPKPLKNRDVVTLRSWQASENEYVIINFSVKHPKYPPRKDLVRAVSLMTGYLIKPTGPQSCTFTYLSQADPKGSLPKWVVNKASQVLAPKVLRSAHKAGQNYPAWKAANSPDHKPWLYPIQSELAMMDPAELSIQRGDSLENVDESSTRDAQENEDSS | soluble
13 | MNHLGKTEVFLNRFALRPLNPEELRPWRLEVVLDPPPGREEVYPLLAQVARRAGGVTVRMGDGLASWSPPEVLVLEGTLARMGQTYAYRLYPKGRRPLDPKDPGERSVLSALARRLLQERLRRLEGVWVEGLAVYRREHARGPGWRVLGGAVLDLWVSDSGAFLLEVDPAYRILCEMSLEAWLAQGHPLPKRVRNAYDRRTWELLRLGEEDPKELPLPGGLSLLDYHASKGRLQGREGGRVAWVADPKDPRKPIPHLTGLLVPVLTLEDLHEEEGSLALSLPWEERRRRTREIASWIGRRLGLGTPEAVRAQAYRLSIPKLMGRRAVSKPADALRVGFYRAQETALALLRLDGAQGWPEFLRRALLRAFGASGASLRLHTLHAHPSQGLAFREALRKAKEEGVQAVLVLTPPMAWEDRNRLKALLLREGLPSQILNVPLREEERHRWENALLGLLAKAGLQVVALSGAYPAELAVGFDAGGRESFRFGGAACAVGGDGGHLLWTLPEAQAGERIPQEVVWDLLEETLWAFRRKAGRLPSRVLLLRNGRVPQDEFALALEALAREGIAYDLVSVRKSGGGRVYPVQGRLADGLYVPLEDKTFLLLTVHRDFRGTPRPLKLVHEAGDTPLEALAHQIFHLTRLYPASGFAFPRLPAPLHLADRLVKEVGRLGIRHLKEVDREKLFFV | soluble
14 | RGNLGQSQKVLIEFVSANPTGPLHVGHGRGAAFGATLGNVLKAAGYDVTLEYYVNDAGRQMNILAVSVWLRYLELAGEPIVFPANGYKGQYVYEIAQEIWSEQGNQFVHPWISVVENLPADEPEGGDKETYIDAIIARAQSLLGKDGFANFHQHALKTVLDDIKDDLQAFGVRFDSWFSEQSLFEDGSIEKGIQALKDRGHTYEREGALWFRATDFGDEKDRVLVRANGQTTYFASDVAYHWNKYDRGFDRVIDIFGADHHGYVTRIKTAVKALGHDESALDVILVQFAILYRGGDRVQMSTRSGSFVTLRELREEVGNDAARYFYVARKPEQHMDFDLDLAKSESSDNPVYYIQYAHARICSVLRQLKERGLKWDKDMGL | not soluble
15 | MGHHHHHHSHMSVHKLTDLRDNSTNWKINVKILSIWNHPPNSHGEITTMILHDDKNNRVDATIPQGNYHNPFCPFLKPGTWIHISDFRVVVPQSRVRYSSFRFHIKFIWETSVHPLPELVKRDFFD | not soluble
16 | SLVAVIGCCHGELNRLYMEVEKYENEKNEKVDLILCCGDMQTIRDENDLQDMAVKSHRSKKGDFWEYYEGLKKAPKLTIFIGGNHETPNVLIPLYYGGWVAPNIFYLGSSGVIRVGDVRVAGISGIYKNYDHFRGYYESKPFTEESKRSWYHIRWLEIQKLLLIENIKSNFLGSTESRKVDVMISHDWPNGIERFGNLNYLIRRKPYLKEDIELGRLGIPGCIELIEHLRPTFWFSGHHHCFFDASIEFENQLYSSEFRAIDKFKNSNSPVRYFDINSNKNDVRIYLDFEWLTILRSVKANIPKGNFTIDKNSIPKLSGPTKSDIDAIYKNLKEVIGDFDENHYEWPLWGQANGNFKNLQDQYNFINRIIEEG | not soluble
